# Results taken from patent publication US20240261333A1 (published 2024).
# B1: N-terminal FLAG tagged B3GNT2 (enzyme, human, UniProt Q9NY97 1-397, looked up)
# chain: MSVGRRRIKLLGILMMANVFIYFIMEVSKSSSQEKNGKGEVIIPKEKFWKISTPPEAYWNREQEKLNRQYNPILSMLTNQTGEAGRLSNISHLNYCEPDLRVTSVVTGFNNLPDRFKDFLLYLRCRNYSLLIDQPDKCAKKPFLLLAIKSLTPHFARRQAIRESWGQESNAGNQTVVRVFLLGQTPPEDNHPDLSDMLKFESEKHQDILMWNYRDTFFNLSLKEVLFLRWVSTSCPDTEFVFKGDDDVFVNTHHILNYLNSLSKTKAKDLFIGDVIHNAGPHRDKKLKYYIPEVVYSGLYPPYAGGGGFLYSGHLALRLYHITDQVHLYPIDDVYTGMCLQKLGLVPEKHKGFRTFDIEEKNKNNICSYVDLMLVHSRKPQEMIDIWSQLQSAHLKC
# notes: Overexpressed in cells and pulled down from the lysate with mouse anti-FLAG antibody; also called N-FLAG B3GNT2; N-term FLAG; not shown: N-terminal FLAG tag
# How the values were obtained:
# Experiment in all cases: co-IP, anti-FLAG, lysate of cells with N-FLAG B3GNT2; mass spectrometry
# KRT4 = target: T1, KRT4 (human, UniProt P19013 1-520)
# T1 construct: also called NP_002263.3
# PRBP1 = target: T2, PRBP1 (human, UniProt P26599 1-557)
# T2 construct: Label 'PRBP1' is probably a misprint of PTBP1; also called NP_002810.1 (+4)
# PUM1 = target: T3, PUM1 (human, UniProt Q14671-3 2-1188, limits assumed)
# T3 construct: also called NP_00108494.1 (+1)
# T3 sequence (looked up): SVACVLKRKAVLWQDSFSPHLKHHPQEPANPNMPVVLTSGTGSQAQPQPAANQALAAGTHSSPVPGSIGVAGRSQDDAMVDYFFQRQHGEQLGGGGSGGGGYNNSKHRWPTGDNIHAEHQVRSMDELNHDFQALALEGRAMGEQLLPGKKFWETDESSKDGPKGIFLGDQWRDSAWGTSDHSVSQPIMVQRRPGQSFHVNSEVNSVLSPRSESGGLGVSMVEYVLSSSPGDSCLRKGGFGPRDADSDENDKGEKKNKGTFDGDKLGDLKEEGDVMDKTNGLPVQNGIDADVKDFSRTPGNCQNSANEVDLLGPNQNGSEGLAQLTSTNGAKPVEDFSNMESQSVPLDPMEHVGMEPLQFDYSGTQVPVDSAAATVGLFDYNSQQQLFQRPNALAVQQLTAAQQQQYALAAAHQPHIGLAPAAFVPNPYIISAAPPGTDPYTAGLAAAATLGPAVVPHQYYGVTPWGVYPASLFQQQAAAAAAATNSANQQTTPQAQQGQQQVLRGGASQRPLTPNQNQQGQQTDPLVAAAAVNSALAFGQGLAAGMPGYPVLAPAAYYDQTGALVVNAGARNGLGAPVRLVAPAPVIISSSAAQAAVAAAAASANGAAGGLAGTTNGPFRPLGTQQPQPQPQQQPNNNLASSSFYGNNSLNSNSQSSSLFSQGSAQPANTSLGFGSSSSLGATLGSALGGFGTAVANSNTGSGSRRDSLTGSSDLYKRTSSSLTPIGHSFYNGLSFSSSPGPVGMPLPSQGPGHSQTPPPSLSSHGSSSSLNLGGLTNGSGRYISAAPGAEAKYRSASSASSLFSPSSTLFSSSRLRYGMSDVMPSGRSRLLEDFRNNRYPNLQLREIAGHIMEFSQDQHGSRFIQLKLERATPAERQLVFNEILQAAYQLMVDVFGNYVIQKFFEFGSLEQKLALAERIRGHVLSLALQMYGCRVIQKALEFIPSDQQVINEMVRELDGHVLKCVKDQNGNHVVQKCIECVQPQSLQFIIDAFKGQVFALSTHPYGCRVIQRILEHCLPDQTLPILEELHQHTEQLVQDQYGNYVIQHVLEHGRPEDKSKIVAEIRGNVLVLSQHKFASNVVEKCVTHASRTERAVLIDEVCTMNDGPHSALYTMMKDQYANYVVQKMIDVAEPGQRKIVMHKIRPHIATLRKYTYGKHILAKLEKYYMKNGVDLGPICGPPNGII
# RPS28 = RPS28 (human, UniProt P62857 1-69)
# MYH11 = target: T4, MYH11 (human, UniProt P35749-3 1-1945, limits assumed)
# T4 construct: also called NP_001035202.1 (+4)
# RPS3 = RPS3 (human, UniProt P23396 2-243)
# PARP1 = target: T5, PARP1 (human, UniProt P09874 2-1014)
# T5 construct: also called NP_001609.2
# T5 sequence (P09874 2-1014 limits assumed): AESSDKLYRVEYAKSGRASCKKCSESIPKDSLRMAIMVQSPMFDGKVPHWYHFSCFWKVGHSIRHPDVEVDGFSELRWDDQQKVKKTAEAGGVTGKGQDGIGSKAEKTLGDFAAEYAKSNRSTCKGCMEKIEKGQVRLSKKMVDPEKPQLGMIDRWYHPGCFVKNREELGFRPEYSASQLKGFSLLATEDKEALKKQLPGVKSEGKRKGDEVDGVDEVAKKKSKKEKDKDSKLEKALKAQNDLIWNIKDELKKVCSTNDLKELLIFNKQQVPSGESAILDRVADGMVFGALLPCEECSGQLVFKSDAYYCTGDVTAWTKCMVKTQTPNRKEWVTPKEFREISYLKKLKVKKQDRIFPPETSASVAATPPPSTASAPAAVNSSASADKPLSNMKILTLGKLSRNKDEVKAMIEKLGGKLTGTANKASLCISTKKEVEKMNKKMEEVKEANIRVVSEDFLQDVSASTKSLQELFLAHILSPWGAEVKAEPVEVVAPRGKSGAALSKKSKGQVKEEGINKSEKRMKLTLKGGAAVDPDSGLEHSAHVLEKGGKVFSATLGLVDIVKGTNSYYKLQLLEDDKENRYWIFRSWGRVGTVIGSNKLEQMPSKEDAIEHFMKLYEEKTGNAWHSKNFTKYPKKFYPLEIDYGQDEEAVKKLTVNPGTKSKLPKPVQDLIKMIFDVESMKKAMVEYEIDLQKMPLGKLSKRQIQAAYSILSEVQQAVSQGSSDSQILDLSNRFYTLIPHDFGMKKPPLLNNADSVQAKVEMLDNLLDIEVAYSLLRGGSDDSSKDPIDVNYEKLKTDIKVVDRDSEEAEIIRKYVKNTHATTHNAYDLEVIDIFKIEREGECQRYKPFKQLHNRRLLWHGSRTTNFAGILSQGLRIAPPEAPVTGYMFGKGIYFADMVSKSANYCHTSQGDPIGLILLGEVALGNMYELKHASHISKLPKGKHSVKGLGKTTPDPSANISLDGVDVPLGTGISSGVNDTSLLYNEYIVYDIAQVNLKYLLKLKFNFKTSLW
# T2 sequence (P26599 whole entry): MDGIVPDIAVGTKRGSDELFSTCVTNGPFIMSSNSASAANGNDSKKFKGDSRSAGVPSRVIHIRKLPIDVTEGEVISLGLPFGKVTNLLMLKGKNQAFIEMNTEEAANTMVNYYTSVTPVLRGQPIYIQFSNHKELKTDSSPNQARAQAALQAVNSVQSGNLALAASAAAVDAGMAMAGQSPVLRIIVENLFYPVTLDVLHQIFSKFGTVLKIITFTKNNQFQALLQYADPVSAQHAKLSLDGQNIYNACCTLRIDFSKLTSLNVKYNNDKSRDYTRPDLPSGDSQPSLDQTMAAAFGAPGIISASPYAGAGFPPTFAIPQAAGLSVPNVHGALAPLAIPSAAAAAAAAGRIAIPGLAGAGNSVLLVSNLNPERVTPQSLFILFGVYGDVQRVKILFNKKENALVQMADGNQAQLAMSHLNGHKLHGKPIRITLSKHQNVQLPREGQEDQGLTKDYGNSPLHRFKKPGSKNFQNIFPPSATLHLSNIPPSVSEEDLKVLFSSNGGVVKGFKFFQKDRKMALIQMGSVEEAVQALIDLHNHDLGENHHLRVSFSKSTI
# T4 sequence (P35749 other isoform, or with tags, fused parts or gaps limits assumed): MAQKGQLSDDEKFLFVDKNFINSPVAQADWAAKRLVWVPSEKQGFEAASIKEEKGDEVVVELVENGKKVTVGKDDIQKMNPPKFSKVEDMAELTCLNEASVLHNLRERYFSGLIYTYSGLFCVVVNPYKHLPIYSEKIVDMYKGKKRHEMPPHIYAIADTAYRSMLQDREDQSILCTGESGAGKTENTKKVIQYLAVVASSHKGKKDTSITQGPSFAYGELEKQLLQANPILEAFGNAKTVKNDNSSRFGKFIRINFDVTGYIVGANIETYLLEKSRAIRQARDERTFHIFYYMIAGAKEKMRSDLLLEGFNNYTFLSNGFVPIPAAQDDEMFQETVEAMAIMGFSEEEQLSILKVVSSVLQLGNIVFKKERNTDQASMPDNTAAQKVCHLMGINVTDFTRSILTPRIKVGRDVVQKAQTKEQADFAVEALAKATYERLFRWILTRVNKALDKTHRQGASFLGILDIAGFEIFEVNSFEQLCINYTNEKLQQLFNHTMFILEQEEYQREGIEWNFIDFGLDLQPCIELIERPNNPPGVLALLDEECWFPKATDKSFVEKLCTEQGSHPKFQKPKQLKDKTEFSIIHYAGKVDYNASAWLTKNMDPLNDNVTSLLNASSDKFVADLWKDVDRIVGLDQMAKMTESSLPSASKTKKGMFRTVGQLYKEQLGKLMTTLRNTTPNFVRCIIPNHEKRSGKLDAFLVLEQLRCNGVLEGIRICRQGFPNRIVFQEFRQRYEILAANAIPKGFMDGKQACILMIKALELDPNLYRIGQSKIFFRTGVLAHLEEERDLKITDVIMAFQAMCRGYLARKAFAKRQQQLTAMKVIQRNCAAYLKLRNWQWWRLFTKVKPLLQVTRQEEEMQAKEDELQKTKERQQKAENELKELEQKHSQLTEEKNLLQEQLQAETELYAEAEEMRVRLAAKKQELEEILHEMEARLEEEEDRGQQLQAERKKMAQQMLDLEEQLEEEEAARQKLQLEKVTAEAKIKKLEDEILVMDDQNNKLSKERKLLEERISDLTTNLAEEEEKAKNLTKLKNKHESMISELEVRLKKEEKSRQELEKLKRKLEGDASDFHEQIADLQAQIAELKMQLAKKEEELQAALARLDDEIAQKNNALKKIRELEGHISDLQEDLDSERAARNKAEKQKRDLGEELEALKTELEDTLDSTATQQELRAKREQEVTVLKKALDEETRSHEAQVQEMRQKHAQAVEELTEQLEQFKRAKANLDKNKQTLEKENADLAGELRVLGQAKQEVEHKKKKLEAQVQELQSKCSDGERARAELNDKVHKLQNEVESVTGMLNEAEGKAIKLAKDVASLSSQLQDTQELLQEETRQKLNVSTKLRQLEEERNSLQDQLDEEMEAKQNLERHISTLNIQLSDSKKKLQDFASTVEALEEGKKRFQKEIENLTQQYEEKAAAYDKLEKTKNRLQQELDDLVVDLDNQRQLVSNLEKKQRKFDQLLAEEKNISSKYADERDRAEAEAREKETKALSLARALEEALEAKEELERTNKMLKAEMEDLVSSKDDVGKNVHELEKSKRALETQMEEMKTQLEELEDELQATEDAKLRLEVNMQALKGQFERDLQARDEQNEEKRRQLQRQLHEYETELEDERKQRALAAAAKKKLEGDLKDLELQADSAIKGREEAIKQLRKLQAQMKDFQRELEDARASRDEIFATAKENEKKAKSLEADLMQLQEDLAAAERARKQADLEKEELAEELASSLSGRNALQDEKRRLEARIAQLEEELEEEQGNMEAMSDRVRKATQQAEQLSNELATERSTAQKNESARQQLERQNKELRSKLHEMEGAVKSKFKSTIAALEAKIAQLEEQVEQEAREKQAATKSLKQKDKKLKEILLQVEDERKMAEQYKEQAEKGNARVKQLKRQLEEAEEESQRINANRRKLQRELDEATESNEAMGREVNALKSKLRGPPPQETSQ
# T1 sequence (P19013 whole entry): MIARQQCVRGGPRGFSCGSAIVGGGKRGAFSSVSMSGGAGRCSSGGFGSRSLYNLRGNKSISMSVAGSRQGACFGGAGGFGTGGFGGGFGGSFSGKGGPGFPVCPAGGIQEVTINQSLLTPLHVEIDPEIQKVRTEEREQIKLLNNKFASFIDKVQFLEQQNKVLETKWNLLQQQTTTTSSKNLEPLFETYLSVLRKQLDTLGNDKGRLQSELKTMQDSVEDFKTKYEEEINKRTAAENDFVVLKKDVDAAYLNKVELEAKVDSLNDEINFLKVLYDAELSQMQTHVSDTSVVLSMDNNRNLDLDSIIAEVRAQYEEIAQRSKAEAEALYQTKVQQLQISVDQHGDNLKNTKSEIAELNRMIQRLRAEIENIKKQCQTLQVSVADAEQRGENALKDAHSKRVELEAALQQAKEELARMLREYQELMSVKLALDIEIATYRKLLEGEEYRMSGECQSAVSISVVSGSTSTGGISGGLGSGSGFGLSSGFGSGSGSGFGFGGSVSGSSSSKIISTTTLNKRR
binder,measurement,setting,value
B1,co-IP mass spectrometry count,KRT4,22
same,co-IP mass spectrometry count,PRBP1,6
same,co-IP mass spectrometry count,PUM1,0
same,co-IP mass spectrometry count,RPS28,0
same,co-IP mass spectrometry count,MYH11,2
same,co-IP mass spectrometry count,RPS3,10
same,co-IP mass spectrometry count,PARP1,0
